Source: US20190202907A1 (180 THERAPEUTICS, published 2019)

Tests used:
cyno ST2L (cyno) = test: affinity table; method not stated
human ST2L = molecular target: T1, human ST2L (human, UniProt Q01638 19-328, limits assumed); test: affinity table; method not stated
T1 construct: also called IL-1R4; IL-33Ra
T1 sequence (looked up): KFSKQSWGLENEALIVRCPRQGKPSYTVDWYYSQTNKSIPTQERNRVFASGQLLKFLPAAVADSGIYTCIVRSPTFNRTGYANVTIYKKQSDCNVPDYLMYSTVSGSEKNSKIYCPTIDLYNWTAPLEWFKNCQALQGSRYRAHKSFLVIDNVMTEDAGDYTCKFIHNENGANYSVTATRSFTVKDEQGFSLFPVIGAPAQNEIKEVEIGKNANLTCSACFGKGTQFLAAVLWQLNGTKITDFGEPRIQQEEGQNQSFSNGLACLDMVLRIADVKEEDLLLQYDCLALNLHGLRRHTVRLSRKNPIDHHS

B1: STLM214 (antibody, from another filing, V domains shown)
VH: EVQLLESGGGLVQPGGSLRLSCAASGFTFSSYDMFWVRQAPGKGLEWVSDIKGEGGRTAYADSVKGRFTISRDNSKNTLYLQMNSLRAEDTAVYYCARDPWSTEGSFFVLDYWGQGTLVTVSS
VL: EIVLTQSPATLSLSPGERATLSCRASQSVDDDLAWYQQKPGQAPRLLIYDASNRATGIPARFSGSGSGTDFTLTISSLEPEDFAVYYCQQYIDAPLTFGQGTKVEIK
- Kd (cyno ST2L (cyno)): 37 pM
- koff (cyno ST2L (cyno)): 0.000264 s⁻¹
- kon (cyno ST2L (cyno)): 7.2e+06 M⁻¹ s⁻¹
- Kd (human ST2L): 33 pM
- koff (human ST2L): 0.000299 s⁻¹
- kon (human ST2L): 9.16e+06 M⁻¹ s⁻¹

B2: STLM216 (antibody, from another filing, V domains shown)
VH: EVQLLESGGGLVQPGGSLRLSCAASGFTFSSYDMFWVRQAPGKGLEWVSDIKGEGGATNYADSVKGRFTISRDNSKNTLYLQMNSLRAEDTAVYYCARDPWSTEGSFFVLDYWGQGTLVTVSS
VL: EIVLTQSPATLSLSPGERATLSCRASQSVDDDLAWYQQKPGQAPRLLIYDASNRATGIPARFSGSGSGTDFTLTISSLEPEDFAVYYCQQYIGAPITFGQGTKVEIK
- Kd (cyno ST2L (cyno)): 3 pM
- koff (cyno ST2L (cyno)): 0.000264 s⁻¹
- kon (cyno ST2L (cyno)): 7.89e+07 M⁻¹ s⁻¹
- Kd (human ST2L): 16 pM
- koff (human ST2L): 0.000158 s⁻¹
- kon (human ST2L): 9.63e+06 M⁻¹ s⁻¹

B3: STLM215 (antibody, from another filing, V domains shown)
VH: EVQLLESGGGLVQPGGSLRLSCAASGFTFSSYDMFWVRQAPGKGLEWVSAIAGEGGRTYYADSVKGRFTISRDNSKNTLYLQMNSLRAEDTAVYYCARDPWSTEGSFFVLDYWGQGTLVTVSS
VL: EIVLTQSPATLSLSPGERATLSCRASQSVDDDLAWYQQKPGQAPRLLIYDASNRATGIPARFSGSGSGTDFTLTISSLEPEDFAVYYCQQYIGAPITFGQGTKVEIK
- Kd (cyno ST2L (cyno)): 10 pM
- koff (cyno ST2L (cyno)): 0.000369 s⁻¹
- kon (cyno ST2L (cyno)): 3.54e+07 M⁻¹ s⁻¹
- Kd (human ST2L): 25 pM
- koff (human ST2L): 0.000172 s⁻¹
- kon (human ST2L): 6.91e+06 M⁻¹ s⁻¹
